Experimental data taken from patent publication US20220064278A1 (Janssen / Centocor, published 2022).

Columns and labels:
recombinant human TNFα [1] = molecular target: T1, recombinant human TNFα (human, UniProt P01375 77-233); assay: cell-based or functional assay
recombinant human TNFα [2] = molecular target: T1, recombinant human TNFα; assay: inhibition of 125I-TNFα binding to plate-coated p55-sf2 by hybridoma supernatant
recombinant human TNFα [3] = molecular target: T1, recombinant human TNFα; assay: competition: mAb in hybridoma supernatant preincubated with 5 ng/ml 125I-TNFα, mixture added to plate-coated p55-sf2, cpm bound counted; blocked ligand p55-sf2

| Binder | neutralizing TNFα bioactivity (recombinant human TNFα [1]) | fold better at blocking TNF binding than TNV118 and TNV14 (recombinant human TNFα [2]) [fold] | IC50 (read off the curve) (recombinant human TNFα [3]) [ng/mL] |
| --- | --- | --- | --- |
| TNV148 (antibody, V domains shown) VH: QVQLVESGGGVVQPGRSLRLSCAASGFIFSSYAMHWVRQAPGNGLEWVAFMSYDGSNKKYADSVKGRFTISRDNPKNTLYLQMNSLRAEDTAVYYCARDRGIAAGGNYYYYGMDVWGQGTTVTVSS VL: EIVLTQSPATLSLSPGERATLSCRASQSVYSYLAWYQQKPGQAPRLLIYDASNRATGIPARFSGSGSGTDFTLTISSLEPEDFAVYYCQQRSNWPPFTFGPGTKVDIKR | 4 fold (against TNV14) | ~4 | ~4 |
| TNV196 (antibody, V domains shown) VH: QVQLVESGGGVVQPGRSLRLSCAASGFTFSSYAMHWVRQAPGKGLEWVAFISYDGSNKKSADSVKGRFTVSRDNSKNTLFLQMNSLRAEDTAVFYCARDRGIGAGGNYYYYGMDVWGQGTTVTVSS VL: EIVLTQSPATLSLSPGERATLSCRASQSVYSYLAWYQQKPGQAPRLLIYDASNRATGIPARFSGSGSGTDFTLTISSLEPEDFAVYYCQQRSNWPPFTFGPGTKVDIK | 4 fold (against TNV14) |  | ~4 |
| TNV15 (antibody, V domains shown) VH: QVQLVESGGGVVQPGRSLRLSCAASGFTFSSYAMHWVRQAPGKGLEWVAFILYDGSNKKYADSVKGRFTISRDNSKNALYLQMNSLRAEDTAVYYCARDRGVSAGGNYYYYGMDVWGQGTTVTVSS VL: EIVLTQSPATLSLSPGERATLSCRASQSVSSYLAWYQQKPGQAPRLLIYDASNRATGIPARFSGSGSGTDFTLTISSLEPEDFAVYYCQQRSNWPPFTFGPGTKVDIK |  |  | ~4 |
